{"source": "IntAct's records for PubMed 26766587", "parents": {"B1": {"name": "N-myc proto-oncogene protein (Homo sapiens), P04198 (parent)", "chain": "MPSCSTSTMPGMICKNPDLEFDSLQPCFYPDEDDFYFGGPDSTPPGEDIWKKFELLPTPPLSPSRGFAEHSSEPPSWVTEMLLENELWGSPAEEDAFGLGGLGGLTPNPVILQDCMWSGFSAREKLERAVSEKLQHGRGPPTAGSTAQSPGAGAASPAGRGHGGAAGAGRAGAALPAELAHPAAECVDPAVVFPFPVNKREPAPVPAAPASAPAAGPAVASGAGIAAPAGAPGVAPPRPGGRQTSGGDHKALSTSGEDTLSDSDDEDDEEEDEEEEIDVVTVEKRRSSSNTKAVTTFTITVRPKNAALGPGRAQSSELILKRCLPIHQQHNYAAPSPYVESEDAPPQKKIKSEASPRPLKSVIPPKAKSLSPRNSDSEDSERRRNHNILERQRRNDLRSSFLTLRDHVPELVKNEKAAKVVILKKATEYVHSLQAEEHQLLLEKEKLQARQQQLLKKIEHARTC", "partner": "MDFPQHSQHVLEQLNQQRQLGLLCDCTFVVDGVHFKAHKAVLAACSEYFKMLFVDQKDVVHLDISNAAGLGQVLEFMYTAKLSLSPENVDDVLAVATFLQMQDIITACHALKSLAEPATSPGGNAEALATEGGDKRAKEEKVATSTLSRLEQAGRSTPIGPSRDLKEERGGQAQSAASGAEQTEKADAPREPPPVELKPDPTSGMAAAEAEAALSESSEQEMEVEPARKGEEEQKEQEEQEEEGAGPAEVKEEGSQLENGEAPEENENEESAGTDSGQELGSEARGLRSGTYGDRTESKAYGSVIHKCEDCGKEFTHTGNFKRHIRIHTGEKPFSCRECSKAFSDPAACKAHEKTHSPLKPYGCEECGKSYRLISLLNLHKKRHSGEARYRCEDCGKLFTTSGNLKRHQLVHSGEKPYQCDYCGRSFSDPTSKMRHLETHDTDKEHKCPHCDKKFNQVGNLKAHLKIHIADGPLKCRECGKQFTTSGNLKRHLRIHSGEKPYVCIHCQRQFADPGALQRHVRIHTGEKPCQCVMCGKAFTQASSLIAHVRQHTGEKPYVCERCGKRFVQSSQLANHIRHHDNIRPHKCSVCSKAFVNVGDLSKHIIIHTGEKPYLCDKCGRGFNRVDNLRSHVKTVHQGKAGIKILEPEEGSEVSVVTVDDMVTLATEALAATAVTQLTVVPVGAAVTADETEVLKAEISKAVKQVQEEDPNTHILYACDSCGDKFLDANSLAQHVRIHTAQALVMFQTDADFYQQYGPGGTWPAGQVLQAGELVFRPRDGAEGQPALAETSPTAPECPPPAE"}}, "data": [{"variants_of": "B1", "conditions": "with zbt17_human ZBTB17, Q13105", "values": [{"variant": "MPSCSTSTMPGMICKNPDLEFDSLQPCFYPDEDDFYFGGPDSTPPGEDIWKKFELLPTPPLSPSRGFAEHSSEPPSWVTEMLLENELWGSPAEEDAFGLGGLGGLTPNPVILQDCMWSGFSAREKLERAVSEKLQHGRGPPTAGSTAQSPGAGAASPAGRGHGGAAGAGRAGAALPAELAHPAAECVDPAVVFPFPVNKREPAPVPAAPASAPAAGPAVASGAGIAAPAGAPGVAPPRPGGRQTSGGDHKALSTSGEDTLSDSDDEDDEEEDEEEEIDVVTVEKRRSSSNTKAVTTFTITVRPKNAALGPGRAQSSELILKRCLPIHQQHNYAAPSPYVESEDAPPQKKIKSEASPRPLKSVIPPKAKSLSPRNSDSEDSERRRNHNILERQRRNDLRSSFLTLRDHVPELVKNEKAAKVDILKKATEYVHSLQAEEHQLLLEKEKLQARQQQLLKKIEHARTC", "note": "[V421D]", "effect of a mutation on the interaction": "decreasing interaction strength"}]}]}
